Where a chain is given by its changes, count along the chain named.
Columns and labels:
Assay in all cases: EMSA
FLAG-TEN N338Y = molecular target: T1, FLAG-TEN N338Y (Cucumis sativus (cucumber), UniProt A0A0A0KSL1 1-395, N338Y)
T1 sequence: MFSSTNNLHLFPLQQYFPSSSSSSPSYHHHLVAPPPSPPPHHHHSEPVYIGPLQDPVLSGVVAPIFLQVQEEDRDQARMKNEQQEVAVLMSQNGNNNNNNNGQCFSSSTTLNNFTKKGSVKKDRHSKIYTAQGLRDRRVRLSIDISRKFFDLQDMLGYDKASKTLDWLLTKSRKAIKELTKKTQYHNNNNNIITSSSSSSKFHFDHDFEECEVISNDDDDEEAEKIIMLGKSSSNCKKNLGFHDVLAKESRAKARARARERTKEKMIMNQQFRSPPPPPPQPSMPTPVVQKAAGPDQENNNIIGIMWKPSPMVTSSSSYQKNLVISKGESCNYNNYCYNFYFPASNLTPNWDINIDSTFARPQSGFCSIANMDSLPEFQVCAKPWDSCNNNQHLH

FLAG-TEN = molecular target: T2, FLAG-TEN (Cucumis sativus (cucumber), UniProt A0A0A0KSL1 1-395)
T2 sequence: T1 sequence with Y338N

FLAG-ΔN121 (TCP+R+C130) = molecular target: T3, FLAG-ΔN121 (TCP+R+C130) (Cucumis sativus (cucumber), UniProt A0A0A0KSL1 122-395, del1-121)
T3 sequence: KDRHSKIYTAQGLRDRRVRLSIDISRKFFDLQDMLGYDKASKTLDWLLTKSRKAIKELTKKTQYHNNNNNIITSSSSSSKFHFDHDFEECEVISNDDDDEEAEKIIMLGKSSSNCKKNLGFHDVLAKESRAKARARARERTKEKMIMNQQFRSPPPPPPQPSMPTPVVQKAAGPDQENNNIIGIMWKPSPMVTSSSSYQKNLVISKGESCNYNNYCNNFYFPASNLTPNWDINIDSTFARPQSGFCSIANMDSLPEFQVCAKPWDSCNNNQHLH

MBP-C = molecular target: T4, MBP-C (Cucumis sativus (cucumber), UniProt A0A0A0KSL1 265-395)
T4 sequence: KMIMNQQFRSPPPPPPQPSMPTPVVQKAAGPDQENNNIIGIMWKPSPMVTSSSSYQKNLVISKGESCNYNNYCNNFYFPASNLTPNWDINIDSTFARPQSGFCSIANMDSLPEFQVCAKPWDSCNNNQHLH

B1: GGTCCC probe (GTGGTCCCAC) (dsDNA)
DNA 1: AAATTAAGAATATTGTGGTCCCACTCAAATATAAAGTATTAATT
DNA 2: AATTAATACTTTATATTTGAGTGGGACCACAATATTCTTAATTT
- binding result (FLAG-TEN N338Y): binds

B2: CTCCGCC probe (dsDNA)
DNA 1: AAATTAAGAATATTTAACTCCGCCAATTCAAATATAAAGTATTAATT
DNA 2: AATTAATACTTTATATTTGAATTGGCGGAGTTAAATATTCTTAATTT
- binding result (FLAG-TEN): binds
- binding result (FLAG-ΔN121 (TCP+R+C130)): binds
- binding result (FLAG-TEN N338Y): no binding
- binding result (MBP-C): no binding
